Assay results taken from patent JP2014141434A (dated 2014).

Legend:
[1] = molecular target: T1, 全長ヒトROBO4 (pCI−hROBO4導入細胞) (human, UniProt Q8WZ75 28-1007); test: flow cytometry, hybridoma supernatant on hROBO4-transfected HEK293T cells against mock cells
T1 construct: Expressed from pCI-hROBO4 on HEK293 / HEK293T cells; also called human ROBO4
T1 sequence: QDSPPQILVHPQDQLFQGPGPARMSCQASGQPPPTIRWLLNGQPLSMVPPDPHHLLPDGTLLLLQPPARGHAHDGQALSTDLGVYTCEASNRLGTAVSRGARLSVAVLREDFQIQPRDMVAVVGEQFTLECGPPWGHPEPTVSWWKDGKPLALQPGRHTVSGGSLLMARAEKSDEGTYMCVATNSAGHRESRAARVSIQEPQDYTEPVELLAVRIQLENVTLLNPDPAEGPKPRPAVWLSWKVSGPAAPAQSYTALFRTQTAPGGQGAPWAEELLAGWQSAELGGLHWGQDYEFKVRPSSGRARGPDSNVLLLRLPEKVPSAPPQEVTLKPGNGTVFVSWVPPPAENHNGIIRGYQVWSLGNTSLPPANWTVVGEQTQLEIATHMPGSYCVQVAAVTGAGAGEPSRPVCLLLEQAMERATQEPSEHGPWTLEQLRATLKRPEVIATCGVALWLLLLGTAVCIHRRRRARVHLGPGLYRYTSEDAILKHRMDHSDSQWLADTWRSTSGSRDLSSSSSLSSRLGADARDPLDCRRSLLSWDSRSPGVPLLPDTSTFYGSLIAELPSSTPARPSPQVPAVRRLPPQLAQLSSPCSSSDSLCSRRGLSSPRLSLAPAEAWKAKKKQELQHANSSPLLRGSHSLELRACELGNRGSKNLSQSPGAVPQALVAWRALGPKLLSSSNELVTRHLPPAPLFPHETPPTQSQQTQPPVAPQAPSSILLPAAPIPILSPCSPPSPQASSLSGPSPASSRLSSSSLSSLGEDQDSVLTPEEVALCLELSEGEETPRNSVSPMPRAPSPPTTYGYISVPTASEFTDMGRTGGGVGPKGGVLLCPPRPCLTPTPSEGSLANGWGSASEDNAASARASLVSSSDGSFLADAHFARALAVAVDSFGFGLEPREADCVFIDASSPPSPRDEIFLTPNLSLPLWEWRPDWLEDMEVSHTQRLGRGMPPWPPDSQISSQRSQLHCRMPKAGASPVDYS

[2] = molecular target: T2, N末端FLAG−tag付加型カニクイザルROBO4 cynoROBO4−1 (cynomolgus monkey, UniProt Q8WZ75 28-1007 (human entry)); test: flow cytometry, transfected HEK293 cells, 10 μg/mL
T2 construct: also called pCI−FLAG−cynoROBO4−1
T2 chain: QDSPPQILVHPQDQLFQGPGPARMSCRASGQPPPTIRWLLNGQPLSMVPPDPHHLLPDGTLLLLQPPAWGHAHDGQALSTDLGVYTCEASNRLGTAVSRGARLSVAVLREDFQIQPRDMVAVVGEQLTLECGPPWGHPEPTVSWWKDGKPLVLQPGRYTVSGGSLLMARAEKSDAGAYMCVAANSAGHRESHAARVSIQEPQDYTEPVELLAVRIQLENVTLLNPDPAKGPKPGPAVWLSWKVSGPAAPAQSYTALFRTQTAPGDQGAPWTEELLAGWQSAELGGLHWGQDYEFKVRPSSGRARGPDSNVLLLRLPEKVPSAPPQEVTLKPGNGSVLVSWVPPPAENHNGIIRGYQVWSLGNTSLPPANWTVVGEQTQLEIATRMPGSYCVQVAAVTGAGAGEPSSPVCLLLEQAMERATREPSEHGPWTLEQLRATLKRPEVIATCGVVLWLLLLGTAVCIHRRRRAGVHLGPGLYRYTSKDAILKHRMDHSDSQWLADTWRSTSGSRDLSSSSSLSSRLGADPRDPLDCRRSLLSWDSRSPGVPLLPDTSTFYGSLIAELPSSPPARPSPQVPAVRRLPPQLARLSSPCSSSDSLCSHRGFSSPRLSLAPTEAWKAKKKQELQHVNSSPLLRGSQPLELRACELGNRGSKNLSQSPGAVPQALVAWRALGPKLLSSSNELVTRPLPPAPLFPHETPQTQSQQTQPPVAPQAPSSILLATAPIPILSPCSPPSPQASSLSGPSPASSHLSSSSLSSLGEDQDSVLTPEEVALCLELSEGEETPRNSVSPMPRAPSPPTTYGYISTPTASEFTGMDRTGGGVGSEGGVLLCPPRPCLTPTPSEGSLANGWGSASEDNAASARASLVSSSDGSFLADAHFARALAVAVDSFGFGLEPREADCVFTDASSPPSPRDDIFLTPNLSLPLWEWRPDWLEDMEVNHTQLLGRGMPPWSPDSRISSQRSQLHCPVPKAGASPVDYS

[3] = molecular target: T3, N末端FLAG−tag付加型ヒトROBO4細胞外領域ドメイン欠損体 hROBO4−132 (human, UniProt Q8WZ75 132-1007); test: flow cytometry, transfected HEK293 cells, 10 μg/mL
T3 construct: On HEK293 cells; also called pCI−FLAG−hROBO4−132; pCI−hROBO4−132
T3 sequence: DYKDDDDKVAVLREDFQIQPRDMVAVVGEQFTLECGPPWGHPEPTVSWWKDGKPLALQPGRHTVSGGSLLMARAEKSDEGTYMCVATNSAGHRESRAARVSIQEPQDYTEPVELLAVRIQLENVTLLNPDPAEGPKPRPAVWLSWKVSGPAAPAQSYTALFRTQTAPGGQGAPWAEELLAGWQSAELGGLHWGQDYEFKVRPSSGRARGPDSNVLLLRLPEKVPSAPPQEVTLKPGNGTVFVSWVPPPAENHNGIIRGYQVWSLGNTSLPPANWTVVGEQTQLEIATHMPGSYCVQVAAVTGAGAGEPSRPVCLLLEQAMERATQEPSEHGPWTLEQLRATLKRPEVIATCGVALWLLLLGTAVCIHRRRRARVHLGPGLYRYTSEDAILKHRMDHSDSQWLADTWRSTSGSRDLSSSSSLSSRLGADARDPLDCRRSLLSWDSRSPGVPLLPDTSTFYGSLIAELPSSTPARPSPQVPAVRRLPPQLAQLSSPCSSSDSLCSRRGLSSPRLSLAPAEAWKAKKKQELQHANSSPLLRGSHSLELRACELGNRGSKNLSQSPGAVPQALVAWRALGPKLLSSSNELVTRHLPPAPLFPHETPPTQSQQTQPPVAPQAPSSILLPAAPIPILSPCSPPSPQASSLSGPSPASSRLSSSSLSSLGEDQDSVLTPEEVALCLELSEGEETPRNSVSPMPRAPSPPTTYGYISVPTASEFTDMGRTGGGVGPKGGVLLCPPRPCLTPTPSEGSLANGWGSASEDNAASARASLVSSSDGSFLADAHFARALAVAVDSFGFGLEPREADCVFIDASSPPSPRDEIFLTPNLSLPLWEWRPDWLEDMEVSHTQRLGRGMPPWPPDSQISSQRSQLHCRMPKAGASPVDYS

Measured: binding result

B1: 抗ROBO4マウスモノクローナル抗体 MAb1 (antibody, V domains shown)
VH: EVQLVESGGGLVKPGGSLKLSCAASGFTFSTYAMSWVRQTPEKRLEWVATISNGGTYTYYPDSVKGRFTISRDNAENTLYLQMSSLRSEDTAMYFCARLIYYDYLDYWGHGTTLTVSS
VL: DAVMTQTPLSLPVSLGDQASISCRSSQSLENSNGNTYLNWYFQKPGQSPQLLIYRVSNRFSGVLDRFSGSGSGTDFTLKISRVEAEDFGVYFCLQVTHVPWTFGGGTKLEIKR
notes: Mouse IgG1 (gamma 1) / kappa from a hybridoma; The constant regions are not in the listing; also called MAb1
binds: [1] | [2] | [3]
